Patent publication US6525022B1, “Receptor specific atrial natriuretic peptides” (Genentech, Inc., priority 1993, dated 2003)
Bridges are numbered along the chain shown (N, C = ends). Where no end group is shown, it is not given here.

Legend:
[1] = target: T1, human natriuretic peptide clearance receptor-C (human) (UniProt P17342); test: competition binding, Table I; tracer and receptor format not given
T1 sequence (looked up): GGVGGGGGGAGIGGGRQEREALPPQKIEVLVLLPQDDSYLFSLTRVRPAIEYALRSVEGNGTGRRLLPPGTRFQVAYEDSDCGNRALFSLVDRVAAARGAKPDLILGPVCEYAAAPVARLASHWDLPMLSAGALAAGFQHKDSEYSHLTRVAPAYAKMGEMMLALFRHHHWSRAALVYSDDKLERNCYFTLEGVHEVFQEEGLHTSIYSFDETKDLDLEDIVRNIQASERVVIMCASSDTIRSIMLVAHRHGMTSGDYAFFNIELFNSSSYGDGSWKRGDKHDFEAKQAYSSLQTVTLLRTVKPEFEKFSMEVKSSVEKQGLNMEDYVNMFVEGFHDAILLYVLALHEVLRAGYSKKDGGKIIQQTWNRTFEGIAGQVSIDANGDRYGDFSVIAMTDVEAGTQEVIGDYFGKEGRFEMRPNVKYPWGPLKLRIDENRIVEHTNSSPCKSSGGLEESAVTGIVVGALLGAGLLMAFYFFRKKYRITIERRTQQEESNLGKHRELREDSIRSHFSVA

[2] = target: human natriuretic peptide receptor-A (human) (UniProt P16066); test: as above
[3] = target: human neutral endopeptidase 24.11 (human) (UniProt P08473); test: cell-based or functional assay
[4] = target: human NEP (hNEP), endopeptidase 24.11 (Homo sapiens, UniProt P08473); test: in vitro; conditions: Half-Life (min.)
Procedure: The half-life of various ANF variants was measured according to the following procedure.
ANF Solution: An accurately weighed amount of ANF or variant thereof was diluted with HEPES buffer (5 ml of 1 M HEPES Buffer and 0.1 ml of Tween 20 diluted to a 100 ml volume with DI water) to make a 0.5 mg/ml solution.
hNEP/HEPES Solution: 7.5 μl of a 1 mg/ml solution of hNEP (see U.S. Pat. No. 4,960,700) is dissolved in 992.5 μl of HEPES buffer (as described above) and vortex mixed. The resulting mixture is stored in a silylated Eppendorf tube and periodically checked for activity against an ANF peptide standard.
Assay conditions: 150 μl of an ANF solution in the HEPES buffer is diluted with 820 μl HEPES buffer and vortex mixed (1 sec). Careful note of the time is taken as 30 μl of the hNEP/HEPES solution is added and the solution is vortex mixed for 1 sec. and analyzed by periodic removal of constant volume aliquots by the HPLC autosampler. A 2.5 cm×50 cm, C-18 reversed-phase column (15 micron, 300 Å]) was used and elution was achieved by using a shallow gradient of increasing acetonitrile. The elution conditions consisted of a 10% to 50% acetonitrile (containing 0.1% TFA) gradient at 0.5% min.^−1. The aqueous phase was 0.1% TFA in water. The peak area of the ANP peptide is recorded at these periodic intervals and a half-life is determined from these values.

[5] = target: T2, human natriuretic peptide receptor-A expressed in 293 cells (Homo sapiens, UniProt P16066); test: cGMP production in 293 cells expressing hNPR-A; assay type: cell-based
T2 construct: expressed in transfected cells
T2 sequence (P16066 33-1061): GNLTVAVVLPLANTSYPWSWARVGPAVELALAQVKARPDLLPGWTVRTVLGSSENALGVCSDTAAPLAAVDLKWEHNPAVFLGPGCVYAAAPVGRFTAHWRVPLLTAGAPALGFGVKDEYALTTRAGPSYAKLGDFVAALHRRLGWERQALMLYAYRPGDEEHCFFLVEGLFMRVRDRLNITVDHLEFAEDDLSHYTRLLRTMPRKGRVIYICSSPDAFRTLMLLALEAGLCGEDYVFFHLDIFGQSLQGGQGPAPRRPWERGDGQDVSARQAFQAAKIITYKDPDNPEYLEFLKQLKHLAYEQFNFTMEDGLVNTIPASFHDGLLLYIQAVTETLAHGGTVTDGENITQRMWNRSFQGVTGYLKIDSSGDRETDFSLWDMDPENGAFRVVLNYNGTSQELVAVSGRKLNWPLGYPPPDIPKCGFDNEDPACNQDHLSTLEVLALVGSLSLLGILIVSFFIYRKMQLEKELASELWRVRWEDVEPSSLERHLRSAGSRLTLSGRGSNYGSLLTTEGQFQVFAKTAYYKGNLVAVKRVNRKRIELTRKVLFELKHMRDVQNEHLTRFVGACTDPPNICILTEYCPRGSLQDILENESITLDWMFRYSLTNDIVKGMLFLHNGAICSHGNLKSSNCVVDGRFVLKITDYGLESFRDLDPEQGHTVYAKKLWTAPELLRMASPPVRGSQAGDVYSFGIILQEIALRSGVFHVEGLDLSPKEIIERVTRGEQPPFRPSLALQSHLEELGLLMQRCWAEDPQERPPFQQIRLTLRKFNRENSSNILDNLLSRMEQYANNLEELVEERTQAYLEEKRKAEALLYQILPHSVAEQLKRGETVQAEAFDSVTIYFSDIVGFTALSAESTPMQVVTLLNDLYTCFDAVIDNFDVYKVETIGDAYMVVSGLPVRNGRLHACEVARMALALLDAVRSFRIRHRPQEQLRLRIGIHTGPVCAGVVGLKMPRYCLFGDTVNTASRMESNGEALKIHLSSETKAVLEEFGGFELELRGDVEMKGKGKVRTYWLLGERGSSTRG
Procedure: Stable 293 cell lines were maintained in glycine free F-12/Dulbecco's minimal essential medium (50/50, v/v) with 10% dialyzed fetal calf serum, 10 mM Hepes, […] of G418 (Geneticin, GIBCO/BRL), pH 7.2, in a humidified incubator at 37° C. with 7% CO2, 93% air. Cells were passaged using 136.8 mM NaCL, 2.6 mM KCl, 7.9 mM Na2HPO4, 1.4 mM KH2PO4, pH 7.2 (PBS) with 0.5 mM EDTA. For concentration-response experiments log phase cultures of 293 cell lines were passaged to 12 well plates at a density of 2.5×10^5 cells/well. After 48 hours cultures were approximately 50% confluent, and were used for stimulation of cGMP production. Peptide treatments were carried out essentially as described by Lowe and Fendly (1992). Briefly, dried peptide aliquots were resuspended in 0.1% (v/v) acetic acid to a stock concentration of 50 μM, and diluted to 1 μM in F-12/Dulbecco's minimal essential medium (50/50, v/v) with 25 mM Hepes, 0.1% (w/v) bovine serum albumin, 0.1 mM isobutylmethylxanthine at pH 7.2 (stimulation medium). Five-fold serial dilutions were prepared in stimulation medium using polypropylene tubes, then prewarmed to 37° C. before use. Cell culture medium was aspirated prior to adding 0.5 ml of stimulation medium plus peptides to monolayer cultures for 10 minutes at 37° C. Reactions were stopped by addition of 0.5 ml of ice cold 12% trichloroacetic acid to give a final volume of 1 ml. Culture plates were frozen on dry ice and stored at −20° C. prior to assay. For cGMP measurements samples were thawed at room temperature, and processed as described by Koller et al., Science 252:120-123 (1991), for cGMP radioimmunoassay (Biomedical Technologies, Inc). All stimulations were performed in triplicate, and samples were measured in duplicate for cGMP by radioimmumoassay. Predicted peptide concentrations were corrected based on quantitative amino acid analysis of duplicate samples from the same set of peptide aliquots used for the stimulation experiments.
Data analysis. The competition binding curves and cGMP production dose responses were analyzed by the four-parameter logistic equation with the KaleidaGraph™ program (Synergy Software, PA) to obtain estimates of the IC50 or EC50 values. The non linear least-squares curve fitting program SCATPLOT was used to analyze the competition binding curves according to a one-site or two-site binding model for competitor. A two-site binding model is reported when the fit to the data was statistically better (p<0.05) than a one-site fit.

hNPR-C = target: T3, hNPR-C (Homo sapiens, UniProt P17342); test: Competitive binding to membranes from cells expressing human NPR-C; design: expressed in transfected cells; conditions: FIG. 19, in comparison to rat ANP
T3 sequence (P17342 27-541): T1 sequence (looked up)
Procedure: Membrane preparation. Stable cell lines expressing human NPR-A (Lowe and Fendly, J. Biol. Chem. 267:21691-21697 (1992)) or human NPR-C (Cunningham et al., EMBO J 13, 2508-2515 (1994)) were removed from cell culture dishes with 0.5 mM EDTA in phosphate buffered saline (PBS), placed in ice cold PBS and centrifuged at 228 g for 10 min at 4° C. The cell pellets were resuspended in ice-cold homogenization buffer (50 mM HEPES, 1 mM EDTA, 1 mM DTT, 0.25 M sucrose, 0.7 mg/mL pepstatin A, 0.5 mg/mL leupeptin and 1 mM PMSF, pH 7.4). The cells were then homogenized using a Brinkman polytron at setting 5 for 30 sec. The homogenate was centrifuged at 400×g for 10 min at 4° C. The supernatant was collected and centrifuged at 100,000×g for 30 min at 4° C. […] Protein concentrations was determined using the Biorad protein assay with IgG as a standard.
Membrane competition binding assays. […] The plates were washed six times with PBS, then air dried prior to adding scintillant and counted in a Packard Topcount scintillation counter for 1 min/well. Binding was measured in duplicate for each concentration of competitor.
Data analysis. The competition binding curves and cGMP production dose responses were analyzed by the four-parameter logistic equation with the KaleidaGraph™ program (Synergy Software, PA) to obtain estimates of the IC50 or EC50 values. […]

[6] = target: T4, human natriuretic peptide clearance receptor-C (human, UniProt P17342 27-541); test: analysis of variants in receptor binding
T4 construct: whole, on cells; also called hNPR-C; human NPR-C
T4 sequence (looked up): T1 sequence (looked up)

[7] = target: T5, human natriuretic peptide receptor-A (human, UniProt P16066 33-1061); test: competition binding, Table I; tracer and receptor format not given
T5 construct: whole, on cells; also called hNPR-A; human NPR-A
T5 sequence (looked up): T2 sequence (P16066 33-1061)

[8] = target: T4, human natriuretic peptide clearance …; test: as above
[9] = target: human neutral endopeptidase 24.11 (human, UniProt P08473 2-750, limits assumed); test: cell-based or functional assay
Chain of human neutral endopeptidase 24.11 (P08473 2-750 limits assumed): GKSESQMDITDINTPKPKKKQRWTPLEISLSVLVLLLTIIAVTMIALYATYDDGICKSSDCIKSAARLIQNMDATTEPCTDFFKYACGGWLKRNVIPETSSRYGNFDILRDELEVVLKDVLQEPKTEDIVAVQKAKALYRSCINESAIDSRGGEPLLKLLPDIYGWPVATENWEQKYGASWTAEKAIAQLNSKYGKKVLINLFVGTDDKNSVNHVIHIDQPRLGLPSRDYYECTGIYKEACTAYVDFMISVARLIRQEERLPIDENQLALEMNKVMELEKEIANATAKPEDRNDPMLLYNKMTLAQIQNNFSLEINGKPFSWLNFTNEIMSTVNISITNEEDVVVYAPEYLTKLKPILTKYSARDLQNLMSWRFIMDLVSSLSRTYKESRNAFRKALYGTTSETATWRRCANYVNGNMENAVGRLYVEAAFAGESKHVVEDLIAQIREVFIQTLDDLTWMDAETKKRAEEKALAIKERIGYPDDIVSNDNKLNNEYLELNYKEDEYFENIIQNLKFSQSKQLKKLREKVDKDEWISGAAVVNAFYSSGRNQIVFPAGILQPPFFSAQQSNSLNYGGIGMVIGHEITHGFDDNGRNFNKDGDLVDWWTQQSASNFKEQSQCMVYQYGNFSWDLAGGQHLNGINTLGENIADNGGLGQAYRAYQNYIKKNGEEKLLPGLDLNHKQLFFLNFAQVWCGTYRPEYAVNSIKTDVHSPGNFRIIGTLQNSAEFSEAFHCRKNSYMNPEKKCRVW

Chain of human NEP (hNEP), endopeptidase 24.11 (P08473 whole entry): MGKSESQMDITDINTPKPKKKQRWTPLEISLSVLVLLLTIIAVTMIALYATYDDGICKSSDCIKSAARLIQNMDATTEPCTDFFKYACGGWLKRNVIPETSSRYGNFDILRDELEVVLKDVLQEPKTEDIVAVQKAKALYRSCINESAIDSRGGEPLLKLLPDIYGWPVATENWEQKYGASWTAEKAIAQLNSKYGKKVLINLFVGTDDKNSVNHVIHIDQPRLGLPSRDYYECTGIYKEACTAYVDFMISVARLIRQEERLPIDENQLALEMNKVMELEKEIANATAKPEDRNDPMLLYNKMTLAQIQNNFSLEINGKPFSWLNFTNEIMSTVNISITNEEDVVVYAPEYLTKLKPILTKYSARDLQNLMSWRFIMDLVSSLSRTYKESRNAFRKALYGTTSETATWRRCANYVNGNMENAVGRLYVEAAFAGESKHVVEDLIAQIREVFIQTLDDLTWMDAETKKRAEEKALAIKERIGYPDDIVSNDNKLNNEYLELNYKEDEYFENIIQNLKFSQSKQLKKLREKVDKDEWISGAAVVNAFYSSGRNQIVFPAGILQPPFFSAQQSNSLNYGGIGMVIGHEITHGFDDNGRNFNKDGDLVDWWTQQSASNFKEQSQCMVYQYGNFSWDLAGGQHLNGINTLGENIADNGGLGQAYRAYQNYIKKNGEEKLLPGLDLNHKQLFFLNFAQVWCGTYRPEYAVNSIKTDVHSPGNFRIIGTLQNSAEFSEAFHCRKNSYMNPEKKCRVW
Chain of human neutral endopeptidase 24.11 (human) (P08473 2-750 limits assumed): as the sequence (P08473 2-750 limits assumed) above

ANF 31 (peptide)
IC50 [1]: 3210 nM | IC50 [2]: 0.052 nM | Half-Life [3]: 2.97 h

CC[C@H](C)[C@@H]1NC(=O)[C@H](CCCNC(=N)N)NC(=O)[C@H](CC(=O)O)NC(=O)[C@H]([C@@H](C)CC)NC(=O)[C@H](CO)NC(=O)CNC(=O)[C@H]([C@@H](C)O)NC(=O)[C@H](Cc2ccccc2)NC(=O)[C@@H](N(C)C(=O)[C@H](CO)NC(=O)[C@H](CO)NC(=O)[C@H](CCCNC(=N)N)NC(=O)[C@H](CCCNC(=N)N)NC(=O)[C@H](CC(C)C)NC(=O)[C@@H](N)CO)CSSC[C@@H](C(=O)N[C@@H](CC(N)=O)C(=O)N[C@@H](CO)C(=O)N[C@@H](Cc2ccccc2)C(=O)N[C@@H](CCCNC(=N)N)C(=O)N[C@@H](Cc2ccc(O)cc2)C(=O)O)NC(=O)CNC(=O)[C@H](CC(C)C)NC(=O)CNC(=O)[C@H](CO)NC(=O)[C@H](CCC(N)=O)NC(=O)[C@H](C)NC(=O)[C@H](CCCNC(=N)N)NC1=O [ANF 82]
half-life at 32 nM/ml [4]: 6.08 h

Ser-Leu-Arg-Arg-Ser-Ser-Cys-Phe-Gly-Gly-Arg-Ile-Asp-Arg-Ile-Arg-Glu-Ala-Ser-Gly-Leu-Gly-Cys-Asn-Ser-Phe-Arg-Tyr (SEQ ID NO: 24), Cys^7-Cys^23 disulfide (SLRRSSCFGGRIDRIREASGLGCNSFRY; disulfide 7-23) [ANF 99]
Potency in cGMP production compared with rat ANP [5]: equipotent | Stimulation of cGMP production (agonist efficacy) [5]: efficacious | Binding to human NPR-C membranes, competition for 125I-rat ANP (hNPR-C): reduced affinity

CC[C@H](C)[C@@H]1NC(=O)[C@H](CCCNC(=N)N)NC(=O)[C@H](CC(=O)O)NC(=O)[C@H]([C@@H](C)CC)NC(=O)[C@H](CO)NC(=O)CNC(=O)[C@H]([C@@H](C)O)NC(=O)[C@H](Cc2ccccc2)N(C)C(=O)[C@@H](NC(=O)[C@H](CO)NC(=O)[C@H](CO)NC(=O)[C@H](CCCNC(=N)N)NC(=O)[C@H](CCCNC(=N)N)NC(=O)[C@H](CC(C)C)NC(=O)[C@@H](N)CO)CSSC[C@@H](C(=O)N[C@@H](CC(N)=O)C(=O)N[C@@H](CO)C(=O)N[C@@H](Cc2ccccc2)C(=O)N[C@@H](CCCNC(=N)N)C(=O)N[C@@H](Cc2ccc(O)cc2)C(=O)O)NC(=O)CNC(=O)[C@H](CC(C)C)NC(=O)CNC(=O)[C@H](CO)NC(=O)[C@H](CCC(N)=O)NC(=O)[C@H](C)NC(=O)[C@H](CCCNC(=N)N)NC1=O [ANF 83]
half-life at 32 nM/ml [4]: 15.5 h

SLRRSSCFGGRMDRIRAQSGLGCNSFRY (disulfide 7-23 (inferred), also called hANF G16R) [hANF(1-28) G16R]
fold reduction of affinity against wild type [6]: ~150 fold

B1: ANF 51 (peptide)
peptide: SLRRSSCFERPMDRIGAQSGLGCNSFRY
modifications: disulfide 7-23
notes: Cys7-Cys23 disulfide; also called hANF(1-28) G9E, G10R, R11P
IC50 [7]: 4.55 nM | IC50 [8]: 32.2 nM | Half-life at 0.075 µg/ml NEP [9]: 32.1 h | Half-life at 0.15 µg/ml NEP [9]: 4.48 h
